Where two headings read alike, the source gives them in different places.
B1: baculovirus produced 6x histidine-tagged recombinant CHO cell MCAK (mitotic centromere-associated kinesin) (natural protein, Chinese hamster (CHO cell MCAK), UniProt P70096 1-718, looked up)
chain: MESLPARLFPGLSIKIQRSNGLIHSANISTVNVEKSCVSVEWIEGGNTKGKEIDFDDVAAINPELLQLLPLHPKDNLPLQENVTVPKQKRRSVNSKIPAPKEGLRSRSTRMSTVPEVRIATQENEMEVELPVATNSRKQFSVATGLPRPSCPAMTELPLSMVSEEAEEQVHPTRSTSSANPARRKSCIVKEMEKMKNKREEKRAQNSEIRIKRAQEYDSSFPNWEFARMIKEFRVTIECHPLTLTDPTEEHRICVCVRKRPLNKQELAKKEIDVISVPSKCLLFVHEPKLKVDLTKYLENQAFCFDFAFDETASNEVVYRFTARPLVQTIFEGGKATCFAYGQTGSGKTHTMGGDLSGKSQNTSKGIYAMASRDVFLLKSQPRYRNLNLEVYVTFFEIYNGKVFDLLNKKAKLRVLEDSKQQVQVVGLQEYLVNCADDVIKMLNMGSACRTSGQTFANSNSSRSHACFQILLRAKGRLHGKFSLVDLAGNERGADTSSADRQTRMEGAEINKSLLALKECIRALGQNKAHTPFRESKLTQVLRDSFIGENSRTCMIAMISPGISSCEYTLNTLRYADRVKELSPHSGLSGEQPIQMETEEMEASSNGTSLAVNFKEEEELSSQMSSFNEAMSQIRELEERAMEELREIIQQGPGWLELSEMTDQPDYDLETFVNKAESALTQQTKHFSALREVIKALRVAMQLEEQASKQMNSKKRHQ
B2: MCAK (mitotic centromere-associated kinesin) in CHO cells (natural protein, Chinese hamster (endogenous in CHO-K1), UniProt P70096 1-718, looked up)
chain: B1 chain

Experiments:
[1] = biological target: the molecule itself; assay: SEC + other: sucrose density gradient centrifugation
[2] = biological target: the molecule itself; assay: as above; remark: listed apart in the source

| Protein | stoichiometry N [1] | stoichiometry N [2] |
| --- | --- | --- |
| B1 | 2 | – |
| B2 | – | 2 |

Source: article PMC2148171 (The Journal of Cell Biology, 1998)
